Laboratory results reported in patent US20250115926A1, “DEREGULATED DHS AND TYRA ENZYMES OF GRASSES ENABLE EFFICIENT PRODUCTION OF BOTH TYROSINE AND PHENYLALANINE” (Wisconsin Alumni Research Foundation, priority 2023, published 2025).

B1: BdTyrAnc: non-canonical TyrA enzyme of Brachypodium distachyon, SEQ ID NO: 37 (protein)
chain: MASSLVHLSSPAGGRTAAAPPSLLSRFSPNFCAFATLRPGPTRPTAATPKHARARTCAEQEQKQEVAAPCRDAYEKPAVWNTTAADSAEAAPPLRVGIIGFGNFGQFIARGIQRQGHAVLATSRSDYSAYCSAQGIRYFRSLEALCEEQPNVLLVCSSILSTEAVVRAIPFHKLRSDTIVADVLSVKQFPRNLLLEILPPEFGIVCTHPMFGPESGKHGWSTLPFVYDKVRLADKGDQKANCGQFLSIFEGEGCRMVEMSCAEHDRHAAASQFITHTIGRVLAQLNLKSTPINTKGFEALLKLTENTVSDSFDLYYGLFMYNVNATEQIEKLERAFEKVKQMLYGRLHDILRKQIVERVPI
modifications: Brachypodium distachyon
B2: BdTyrA2: TyrA2 arogenate dehydrogenase of Brachypodium distachyon, SEQ ID NO: 35 (protein)
chain: MSSSGRFHQPPSCRRPAALAQSLRASTTTVTCRWRQQYHHPLAAAPLRLRAVPVRATDAARQPFDHLSGAVKSEEGTHPRLKIAIVGFGNYGQFLARTMVQQGHTVLAHSRSDHSAAAATIGASFYADAHDLCECQPDVVLLSTSILSAEAVLRSLPVHRFRRSTLFADVLSVKEFPKNLLLAYLPGDFDVICTHPMFGPESARDGWAGLPFVFDEVRVGDGPARRARADAFLDVFAREGCRMVEMSCAEHDAHAAETQFLTHTVGRMLATLDLKSTPINTKGYETLLRLVDNTCSDSFDLYNGLFMYNNNATELLHRLESAMDSVKRRLFDGLHEVLRRQLFEGSPPLNRDSSFPAESSLDDGR
modifications: Brachypodium distachyon
B3: SbTyrAnc: non-canonical TyrA enzyme of Sorghum bicolor, SEQ ID NO: 43 (protein)
chain: MASSLRHFAGLGCFPAVASTSGSTCCLRRYTPNFCAFVALRPISPPAATATATAKALTSPSPVEQHLQAVVPCHGISDPPAASSAAAVPAAPLRVGIVGFGNFGQFIAGGLQRQGHVVLAASRSDYSVYCASHGIRFFRSVDALCEEQPDVLLICSSILSTEGVVRAIPFRKLRHDTIVADVLSVKEFPRNLLLEVLPPGFGIICTHPMFGPESGKHGWGKLPFVFDKVRVAEDGDQAAKCDQFLSIFEQEGCRMVEMSCAEHDRYAAGSQFITHTIGRVLSQLNLKSTPINTKGYETLLQLTKNTVSDSFDLYYGLFMYNVNATEQLDKLEMAFEKVRQMLSGRLHDFIRKQIVERAAHVPADPSGKLANGLSSSPAARLL
modifications: Sorghum bicolor

Legend:
[1] = tested on: Nicotiana benthamiana leaves; assay: Transient expression of TyrA genes in Nicotiana benthamiana leaves (CaMV 35S promoter), tyrosine by HPLC; type: in vivo; conditions: infiltrated leaves, 72 hours
Method: Agrobacterium tumefaciens strain GV3101 transformed with the plant expression constructs were grown at 28° C. for 24 to 36 hours in 10 mL of LB liquid media containing the corresponding antibiotics. The saturated cultures were spun down at 3,000 g for 5 minutes at room temperature and washed twice with 3 mL of induction media (IM; 10 mM MES [2-(N-morpholino) ethanesulfonic acid] buffer pH 5.6, 0.5% glucose, 2 mM NaH2PO4, 20 mM NH4Cl, 1 mM MgSO4, 2 mM KCl, 0.1 mM CaCl2), 0.01 mM FeSO4, and 0.2 mM acetosyringone). After washing, bacteria cultures were incubated in IM for 2 to 3 hours at room temperature in the dark, pelleted at 3000 g for 5 minutes, and resuspended into 3 mL of 10 mM MES buffer pH 5.6 with 0.2 mM acetosyringone. OD600nm was adjusted to a final density of 0.25 units for pAGM4673::TyrA (FIG. 3F) and pICH47822::DHS (FIG. 5A) infiltration, or 0.5 units for pAGM4673::TyrA-DHS co-expression constructs (FIG. 5B) using 10 mM MES buffer pH 5.6 with 0.2 mM acetosyringone. For infiltration of pICH47822::DHS constructs, the Agrobacterium suspensions were adjusted to OD600nm=0.5 and mixed with an equal volume of a suspension of an Agrobacterium clone transformed with pICH4780::p19 under control of the Arabidopsis ubiquitin ligase promoter adjusted to OD600nm=0.5, resulting in a final mixture of 0.25 OD600nm units for each construct. […] Nicotiana benthamiana plants of around 4-weeks-old were infiltrated close to the end of the light period into four different spots per plant, distributed into two leaves at two infiltrations per leaf, with each individual spot corresponding with a different construct/treatment. […]
The infiltrated leaf areas, excluding the midrib and major veins, were harvested at 72 hours after infiltration and frozen immediately in liquid nitrogen. […] A tyrosine peak was detected at the retention time of ˜3.5 minutes using fluorescence detection mode (excitation wavelength 274 nm, emission wavelength 303 nm) and quantified with an authentic tyrosine standard (Alfa Acsar, catalog number AAA1114118). […]

[2] = tested on: Nicotiana benthamiana leaves; assay: Co-expression of BdTyrA and BdDHS enzymes in Nicotiana benthamiana leaves; type: in vivo
From the text: Gene expression data in Brachypodium (FIG. 4B) indicate that BdTyrA1 is co-expressed with BdDHS1b and BdPTAL in the internodes, where we detected a high rate of tyrosine production (FIG. 2). […] We therefore hypothesized that BdTyrA1 and BdDHS1b may co-operate in the high production of tyrosine and phenylalanine observed in grass tissues. To test this possibility, we co-expressed in planta different combinations of BdTyrA enzymes and BdDHS enzymes and measured the impact on phenylalanine and tyrosine levels. To this end, we took advantage of the Golden Gate modular cloning system^52 and assembled the BdTyrA and BdDHS expression cassettes into the same vector backbone (FIG. 13). To avoid causing a strong over-expression, BdTyrA and BdDHS were driven by RuBisCO small subunit promoters from Arabidopsis (PAtRbcS3B) and tomato (PSIRbcS3A), respectively (FIG. 13)^51. […] Similarly, no significant additive effects were observed upon co-expression of the BdTyrA enzymes with feedback-regulated BdDHS2 (FIG. 5B).
Agrobacterium tumefaciens strain GV3101 transformed with the plant expression constructs were grown at 28° C. for 24 to 36 hours in 10 mL of LB liquid media containing the corresponding antibiotics. […]
Aromatic amino acids and shikimate were detected using a Vanquish Horizon Binary UHPLC (Thermo Scientific) coupled to a Q Exactive mass spectrometer (Thermo Scientific). […]

[3] = TyrA feedback inhibition by tyrosine (recombinant enzymes); type: biochemical; conditions: FIG. 12

Molecule | tyrosine content compared to the GUS control [1] | tyrosine levels relative to the tdTom+YPet control ([2]; RuBisCO small subunit promoters (FIG. 5B)) [times] | decrease of phenylalanine levels compared to YPet with tdTom control ([2]; expressed with tdTom control (FIG. 5B)) [times] | type of inhibition by tyrosine with respect to arogenate [3]
B1 | 8 times | ~100 | 4 | competitive
B2 | did not significantly increase tyrosine levels | – | – | –
B3 | 14 times | – | – | –
